Reference: PMC4569737, “Involvement of a eukaryotic-like ubiquitin-related modifier in the proteasome pathway of the archaeon Sulfolobus acidocaldarius” (Nature Communications, 2015)

Tests used:
[1] = target: the molecule itself; experiment: SEC-MALS; 100 μl protein complex at 2 mg/ml, Superdex 200 10/300 Increase GL, 20 mM Tris (pH 8.0), 300 mM NaCl, 25 °C
[2] = target: the molecule itself; experiment: negative-stain transmission electron microscopy; purified 20S complexes at 0.035 mg/ml on carbon-coated grids, 2% uranyl acetate

B1: Saci0656 PAN (proteasome-activating nucleotidase) regulatory ATPase of S. acidocaldarius (enzyme, UniProt F2Z6H9 1-396, looked up)
chain: MFGDVDSYKNRENNNNYDETLVKLLEEKIEALTKEIDKLRQDLNWYKTELEKLLAPPYIEATILDILPDGKVIVRSSSGPNLVVNVATNVDVSKLKPGMSVALSQRGSTIIDILPNREDIIVKSFELIEKPNIHYSDIGGLEDQINELREVVELPLKNKKLFEELGIEPPKGVLLYGPPGTGKTMLAKAVAAESNATFIHVVASEFAQKFVGEGARIVREVFELARKKAPSIIFIDELDAIAARRIDIGTSGEREIQRTLMQLLAEIDGFKALDNVKIIAATNRIDILDPAILRPGRFDRLIEVPLPDEKGRKEIFKIYLQRMRINENDKLNYDLIAQLTDGFSGADIKNVCTEAGYMAIREGRESIKFQDIIRAIDKIKKKNLRKAINTRTEKYL
notes: ORF amplified from genomic DNA; also called PAN ATPase; PAN regulatory ATPase; source: E. coli Rosetta (DE3) pLysS, purified (details in the Supplementary Methods)
[1]
  stoichiometry N: 6

B2: Saci0662ΔN, N-terminally truncated Saci0662 β-subunit (without the pro-peptide), His-tagged (domain or fragment, S. acidocaldarius, UniProt Q4JAY3 7-195, looked up)
chain: TAIGIKTKDGVVLAAERRLSYGDFVLSKSARKVFKLGRFGIAGAGIVGDIQTLTRIMNVEIKYYEMYNSRKISARAAAKLLSVILYQNKVLPYISELLFGGVDEDGPKLFILDPIGSLIEDSYAAVGSGARVAIGVLEAEYNESLTSEAAKELAIKSMKSAVERDVMSGDGIDILIINKNNIYEDFIKI
notes: source: E. coli Rosetta (DE3) pLysS, co-expressed with Saci0613 (with or without Saci0909ΔN); in heat-clarified lysate, and purified as part of the complex (Ni-NTA IMAC, size exclusion chromatography); not shown: His tag, C-terminal, kept
[2]
  binding result: binds

B3: Saci0613 20S proteasome α-subunit, untagged (natural protein, S. acidocaldarius, UniProt Q4JB24 1-242, looked up)
chain: MALGPAAMGYDRAITIFSPDGSLYQVDYAFEAVKRGWTTLGVKTKSGVVLLAEKRKATQLLDVDGIEKIFMLDDHVGCTFAGLASDGRILIDYARSQALQHRLIYDEPISIEYLTKVISDVKQAYTQHGGVRPFGVALIVGGIDKGKQPKLLMTEPSGQFMPYYAVAIGQGGYTATEYLEKNYKEDLDIQSTILLALRALMATLKPGEKLNYSSVEIGYADVDSGTFKKLTTEERSDLLQKI
notes: 20S proteasome α-subunit, S. acidocaldarius DSM639, Saci0613; also called Saci0613 α; 0613 α-subunit; source: E. coli Rosetta (DE3) pLysS, co-expressed with β-subunit(s); in heat-clarified lysate, and purified as part of the complex (Ni-NTA IMAC, size exclusion chromatography)
[2]
  binding result: binds
